How the values were obtained:
[1] = molecular target: XPA M32-4 (UniProt P23025 1-273, R30E;K31E;R32E;R34E); experiment: MST
[2] = molecular target: XPA M32-4/70-2 (UniProt P23025 1-273, R30E;K31E;R32E;R34E;E106K;F112A); experiment: MST
XPA M32-4/70-2, sequence (P23025 whole entry R30E/K31E/R32E/R34E/E106K/F112A): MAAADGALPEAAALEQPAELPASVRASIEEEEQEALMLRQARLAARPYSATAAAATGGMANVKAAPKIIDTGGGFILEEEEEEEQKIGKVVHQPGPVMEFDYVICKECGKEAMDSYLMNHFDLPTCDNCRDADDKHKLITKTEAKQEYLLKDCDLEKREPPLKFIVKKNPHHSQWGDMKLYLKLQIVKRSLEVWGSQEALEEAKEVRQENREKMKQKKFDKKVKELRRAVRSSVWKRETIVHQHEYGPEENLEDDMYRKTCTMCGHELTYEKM

XPA M32-4, sequence (P23025 whole entry R30E/K31E/R32E/R34E): as the sequence (P23025 whole entry R30E/K31E/R32E/R34E/E106K/F112A) above, with K106E, A112F counted along it

B1: 4-nt hairpin NER junction mimic (structured_DNA)
DNA: TTTTGCGGCCGCTTTTGCGGCCGC
Kd [1]: 8.4 ± 2.3 µM
Kd [2]: 10 ± 3 µM

— article PMC9407234
